Positions count from the first letter of the chain named. In names and notes the source's numbering stands. Marks after values point to notes of the source that are not given here.

Data on nine molecules can be found in article PMC3295232 (Journal of the American Chemical Society, 2012).

B1: C221E/C222A: double-mutant of YPDC with a substitution at the neighboring Cys222; permanently activated form (protein, UniProt P06169 2-563, looked up, variant C221E C222A)
Pyruvate decarboxylase …: SEITLGKYLFERLKQVNVNTVFGLPGDFNLSLLDKIYEVEGMRWAGNANELNAAYAADGYARIKGMSCIITTFGVGELSALNGIAGSYAEHVGVLHVVGVPSISAQAKQLLLHHTLGNGDFTVFHRMSANISETTAMITDIATAPAEIDRCIRTTYVTQRPVYLGLPANLVDLNVPAKLLQTPIDMSLKPNDAESEKEVIDTILALVKDAKNPVILADAEASRHDVKAETKKLIDLTQFPAFVTPMGKGSIDEQHPRYGGVYVGTLSKPEVKEAVESADLILSVGALLSDFNTGSFSYSYKTKNIVEFHSDHMKIRNATFPGVQMKFVLQKLLTTIADAAKGYKPVAVPARTPANAAVPASTPLKQEWMWNQLGNFLQEGDVVIAETGTSAFGINQTTFPNNTYGISQVLWGSIGFTTGATLGAAFAAEEIDPKKRVILFIGDGSLQLTVQEISTMIRWGLKPYLFVLNNDGYTIEKLIHGPKAQYNEIQGWDHLSLLPTFGAKDYETHRVATTGEWDKLTQDKSFNDNSKIRMIEIMLPVFDAPQNLVEQAKLTAATNAKQ
B2: E477Q: variant at the indicated position of YPDC (protein, UniProt P06169 2-563, looked up, variant E477Q)
Pyruvate decarboxylase …: B1 Pyruvate decarboxylase … with E220C, A221C, E476Q
B3: E91D: variant at the indicated position of YPDC (protein, UniProt P06169 2-563, looked up, variant E91D)
Pyruvate decarboxylase …: B1 Pyruvate decarboxylase … with E90D, E220C, A221C
B4: D28A: variant at the indicated position of YPDC (protein, UniProt P06169 2-563, looked up, variant D28A)
Pyruvate decarboxylase …: B1 Pyruvate decarboxylase … with D27A, E220C, A221C
B5: YPDC: wild type yeast pyruvate decarboxylase (EC 4.1.1.1) isolated from Saccharomyces cerevisiae (protein, UniProt P06169 2-563, looked up)
Pyruvate decarboxylase …: B1 Pyruvate decarboxylase … with E220C, A221C
B6: E51D: variant at the indicated position of YPDC (protein, UniProt P06169 2-563, looked up, variant E51D)
Pyruvate decarboxylase …: B1 Pyruvate decarboxylase … with E50D, E220C, A221C
B7: E51Q: variant at the indicated position of YPDC (protein, UniProt P06169 2-563, looked up, variant E51Q)
Pyruvate decarboxylase …: B1 Pyruvate decarboxylase … with E50Q, E220C, A221C
B8: E51A: variant at the indicated position of YPDC (protein, UniProt P06169 2-563, looked up, variant E51A)
Pyruvate decarboxylase …: B1 Pyruvate decarboxylase … with E50A, E220C, A221C
B9: E51N: variant at the indicated position of YPDC (protein, UniProt P06169 2-563, looked up, variant E51N)
Pyruvate decarboxylase …: B1 Pyruvate decarboxylase … with E50N, E220C, A221C

The first data set concerns yeast pyruvate decarboxylase (YPDC).
Experiment: not given
The note with it: cited from earlier work.
Take B1: the “reduction in activity compared to YPDC” value is listed as 2–5 fold.

Still in this data set, the particulars now being: pyruvate as substrate; cited from earlier work.
B1: the S0.5 is 1.47 ± 0.04 ^d mM.

Take B2: the S0.5 is on record as 3.02 ± 0.22 ^b mM.

As to B3, the S0.5 is 1.79 ± 0.22 ^c mM.

In the case of B4, the S0.5 is 1.66 ± 0.25 ^b mM.

The next data set shares this test system.
Experiment: not given
It counts as biochemical, Saccharomyces cerevisiae. Conditions: 40 mM pyruvate in syringe, 10 °C, pH 6.0.
Turning to B5, the “rate constant of accumulation of IP tautomer (LThDP), CD signal at 313 nm” value was 312 s⁻¹.

A further data set has the same test system.
Experiment: not given
Conditions: reaction with pyruvate; cited from earlier work.
In the case of B5, the “k′2 (net forward rate constant of LThDP formation)” value is 294 ± 20 s⁻¹.

For the next data set the test system is unchanged. Briefly: YPDC assay coupled to alcohol dehydrogenase/NADH. It counts as biochemical, Saccharomyces cerevisiae. Conditions: per subunit; pyruvate as substrate; pH 6.0, 30 °C.
For the molecule B6, the kcat / subunit was 0.049 s⁻¹.

On to B7, for which the kcat / subunit was determined as 0.035 s⁻¹.

For the molecule B1, the kcat / subunit amounted to 18.2 s⁻¹.

Turning to B5, the kcat / subunit was determined as 60 s⁻¹.

For B8, the kcat / subunit stood at 0.0043 s⁻¹.

Take B9: the kcat / subunit is 0.0024 s⁻¹.

For B2, the kcat / subunit came out at 0.086 s⁻¹.

B3: the kcat / subunit was found to be 11 s⁻¹.

Turning to B4, the kcat / subunit was determined as 0.066 s⁻¹.

Staying with this data set, now noted: pyruvate as substrate.
Turning to B6, the “decrease in kcat as compared to YPDC” value amounted to 1000 fold.

Turning to B8, the “decrease in kcat as compared to YPDC” value is on record as 10,000 fold.

For the molecule B9, the “decrease in kcat as compared to YPDC” value is 10,000 fold.

The same data set, now with this note: pyruvate as substrate; pH 6.0, 30 °C.
Consider B6, for which the S0.5 is reported as 23.1 ± 1.3 mM.

In turn, B7 showed an S0.5 of 14.9 ± 1.3 mM.

On to B5, for which the S0.5 was found to be 1.1 ± 0.2 mM.

For the molecule B8, the S0.5 is on record as 0.72 ± 0.1 mM.

Molecule B9 returned an S0.5 of 31.5 ± 12 mM.
